# Laboratory results from WO1997049805A2 (dated 1997).
# B1: cAb-Lys3 (VHH)
# VHH: DVQLQASGGGSVQAGGSLRLSCAASGYTIGPYCMGWFRQAPGKEREGVAAINMGGGITYYADSVKGRFTISQDNAKNTVYLLMNSLEPEDTAIYYCAADSTIYASYYECGHGLSTGGYGYDSWGQGTQVTVSS
# Target: hen egg-white lysozyme (hen, UniProt P00698 19-147)
# Test: method not stated
binder,measurement,value
B1,Ka,2e+07 M⁻¹
